Patent US20050171008A1, “Monomeric insulin” (priority 2002, published 2005)

Key:
[1] = biological target: Lyspro (B28Lys, B29Pro insulin) (UniProt P01308); experiment: self-association by size exclusion chromatography, Superdex 75, PBS pH 7.4, 80 umol/l protein
[2] = Determination of self-association property by size exclusion chromatography (Superdex 75); format: physicochemical
Protocol: The molecular homogeneity was measured by Symmetry factor Fs. Fs=W0.05h/2A, wherein, W0.05 is the band width at 0.05 peak height and A is the width of the first half peak at 0.05 peak height. The change of average molecular weight was measured by plotting the distribution coefficient Kav vs. protein concentration. Kav=(Vr−V0)/(Vc−Vo), wherein Vr is the retention volume, Vo the void volume and Vc the total bed volume.

Kav [1]	Substance	retention time on Superdex 75 column versus protein concentration ([2]; PBS pH7.4, 40-600 μmol/L)	Kav value versus protein concentration ([2]; PBS pH7.4, increasing concentration)	Fs value (symmetry factor, peak shape) versus protein concentration ([2]; PBS pH7.4, insulin: at concentrations above 400 umol/L)
0.48	Lyspro (B28Lys, B29Pro insulin) (from UniProt P01308 25-110; P01308 25-110)			
	zinc free insulin: zinc free porcine insulin used as control in size exclusion chromatography	decreased with increasing concentration	decreased with increasing concentration	increased markedly
